Source: the supplement of paper PMC12042874
± gives the uncertainty stated by the source.

Assay: amyloid nucleation score (Sup35N fusion, yeast selection) (log enrichment); library NNK1; higher = more nucleation; inactive = no reads after selection
How it was run: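 Sup35N was fused to peptides of 20 random codons and expressed in psi-negative yeast, which were induced with 100 μM copper sulfate for 24 hours and then grown on medium lacking adenine and uracil for 7 days at 30°C. Plasmid inserts from input and output were sequenced on Illumina. The nucleation score is the DiMSum log enrichment of output over input reads, centred on the mode score of non-aggregating sequences. Sequences with under 100 input reads were left out, and random libraries had three technical output replicates.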

| Substance | amyloid nucleation score |
| --- | --- |
| NWNCICFLDPISRDTLYPQ | 8.489 ± 0.046 |
| GVLLGVTSFEFFMGTLEVAW | 0.188 ± 1 |
| YYEMIFSWVTPHSYRDTSYC | -0.733 ± 1.9 |
| FIQCVFHVCLRV | 4.68 ± 0.073 |
| GREANILFLYLVLRTFFRMG | inactive |
| TGYVVVMVYCWSCLGGQSVA | 0.119 ± 0.89 |
| VFSDTPALCIDGLKLFAMVR | -0.182 ± 0.3 |
| LSSDADFKNNSLFRESDKYV | -0.297 ± 0.22 |
| AQLYVNWFCVWSFKE | 6.2 ± 0.08 |
| DLYSGSSFPEISGETSGYIP | 0.06 ± 0.49 |
| ASCVGNINDCRPNIAFWVEE | 0.984 ± 0.84 |
| VIPKGPSKTLNNFWYYAYHS | -0.327 ± 0.79 |
| SAAPRFCSYSSFFALSNLSI | 0.615 ± 0.3 |
| FGMNLILHCTPTQRTYISPV | 2.83 ± 0.092 |
| CKRNQTTVSVVGWFI | -0.227 ± 1.2 |
| LILCCPYNFNLVLMCCPKVG | 7.268 ± 0.049 |
| LLLFFNYNLSVIWWVYGRKS | 1.23 ± 0.47 |
| FSMGSVWTEERQLCWVPMVW | 1.11 ± 0.94 |
| LLDARWRTYSFRVAMLWGRR | inactive |
| ETEGSELFNFWAGVNWRRIQ | -0.425 ± 1.3 |
| IHVTGCYLEPSAHF | inactive |
| VPPCEWHRRTYR | 0.176 ± 1.1 |

| Substance | amyloid nucleation score |
| --- | --- |
| SSSVCPLHSADSCVSGISAD | 1.73 ± 0.64 |
| YSVLVPIPLSCCISDVLYCT | 5.61 ± 0.064 |
| IWYSDVGPTTN | -1.14 ± 0.56 |
| SSYFMVYYQRVTSCFMVGFL | -0.865 ± 0.48 |
| CYVKTYKIKSLRR | -0.07 ± 1.4 |
| ISGFRKLVMVREVP | -0.606 ± 1.4 |
| KVHKLIDNYMLRSRWY | -0.139 ± 0.9 |
| VFHFYILMNCESCVTGGVPV | 7.938 ± 0.054 |
| TFSTGRACLNEVRNVGMFKM | 0.75 ± 0.54 |
| HSSPLGLLWGAPARRRYCRR | -0.32 ± 0.87 |
| GLKRWSIGFRDGERQSCRVR | -0.523 ± 0.35 |
| LRYIMPDND | -1.09 ± 1.5 |
| FRNDGYLNSYMSRRVIIPSD | -0.194 ± 0.23 |
| SYEFVVRSWLSLYLINFKSS | inactive |
| TFYSCHP | 1.49 ± 0.37 |
| NNYVYLSLSFPVGTVC | -0.377 ± 0.61 |
| RRWGLFDIFKMPKELNMLHW | 0.915 ± 1.1 |
| NNYLCAEWFVTGVSTPLTTS | 0.735 ± 0.55 |
| LYIGIPYVGVWNL | 0.282 ± 1.2 |
| VNQFLRAMVPLKLRYRYFCL | 1.02 ± 0.74 |
| SEGIPPQFFRYTAGASNLDT | 0.306 ± 0.64 |
| CWCGVTVCV | -0.276 ± 0.59 |

| Substance | amyloid nucleation score |
| --- | --- |
| NTLYYRSFRAIQLPGGENQN | -1.09 ± 1.9 |
| ILYMWWVRPLVQAQENRRRY | -0.089 ± 0.39 |
| FANLVYGQLRVNDTLVSCT | -0.044 ± 0.33 |
| TIVLLNCISIRLSIRFMFIP | -0.251 ± 1 |
| QVTVRM | 0.987 ± 0.24 |
| RKFMDYSLKFSWRGVIPVMR | -1.83 ± 1.8 |
| STFAALNVKSCGVCLMWLLD | 0.1 ± 0.84 |
| GICELQRPTYVTLVEVFMVD | -0.49 ± 0.41 |
| QGIYTD | -0.921 ± 0.78 |
| FELGWMYSYKMAKLPWYMTC | 0.362 ± 0.99 |
| ARYSRRRKVMSLLVTGEMDA | -0.038 ± 0.44 |
| HTRIADGPAC | 0.018 ± 0.21 |
| FHVVSFQGETCDHRIGRIVY | 0.002 ± 0.33 |
| SKNAWRVKNKSEFAV | 0.488 ± 0.69 |
| VVSDNSMDV | 0.39 ± 0.47 |
| SSPRTLRGLIYGRIKYYVLE | 1.84 ± 0.35 |
| SFSSSSLYSLVCRYHSIRWA | 0.589 ± 0.28 |
| WLTRFRRGAACRDLLWRGER | -0.096 ± 1.4 |
| DSWEYFLP | -0.375 ± 0.53 |
| GFRYEPNWSLSFPGV | 0.214 ± 0.41 |
| NGHLRSINTSSARCMPAVFT | -0.112 ± 0.53 |
| RFNTEKRLALNNNMPLRWFS | -0.125 ± 1.7 |

| Substance | amyloid nucleation score |
| --- | --- |
| CKVDRFIRCGVGYLSG | 0.039 ± 0.28 |
| VFGAFSESLLYSR | 0.51 ± 0.35 |
| AYFIYVMYG | -1.11 ± 1.1 |
| NIIIVNSSVG | 1.49 ± 0.37 |
| KFTVVVAVSCRRLPSNICRI | 0.141 ± 0.53 |
| GYKRFYLLVKLYVFERINIA | -0.244 ± 0.31 |
| YDNRSALDWCLGEVMFAST | -0.993 ± 0.35 |
| YHVRVKYFPWNGTNVTVLDS | -0.73 ± 0.32 |
| KPGTNSYGCVYNHGFMGCTK | -0.245 ± 0.45 |
| AVCVEGQLANSGHRGTGNGN | 0.257 ± 0.48 |
| LIYPGIVDFVFSDARQGCSR | 1.08 ± 0.69 |
| INSTEIPFDPAVKL | -0.908 ± 0.79 |
| VEMGIIFR | -0.339 ± 0.24 |
| FRYIYMMDMSSYQYVKRGSS | inactive |
| GLFMGWYDRMP | 0.265 ± 0.6 |
| SYTSRPYFTNIYVDYWFMVC | 6.216 ± 0.05 |
| CPRYLATNIFHAGECVNHSR | -1.08 ± 2.7 |
| NNSHFQSNGNIWSNNSSPSA | inactive |
| ILKELSKPGVQPVVS | 0.575 ± 0.8 |
| LGTLNAGHTRDVDGAMGYVW | 0.252 ± 1.1 |
